The values below come from patent publication US20240299584A1, “NON-CODING RNA PROTECTING AGAINST HEART FAILURE” (MEDIZINISCHE HOCHSCHULE HANNOVER, priority 2019, published 2024).

For series [1], the system named is HL-1 cells. Briefly: Analysis of mitochondrial fission (MitoTracker). The class given is cell-based, mouse. The conditions noted are these: doxorubicin 0.25 μM 48 h, circ-Insr by overexpression plasmid vs negative control. On the procedure: Based on the results of the foregoing examples, it was reasoned that circ-Insr could interact with SSBP1. To further confirm the interaction between circ-Insr and SSBP1, siRNA mediated circ-Insr knock-down was applied in HL-1 cells. Next, RNA pulldown was performed with circ-Insr and scramble biotinylated probes. RT-qPCR confirmed that decrease of circ-Insr appeared both in input and circ-Insr pulldown group (FIG. 23A). […] Therefore, we assumed that circ-Insr is a cofactor of SSBP1 resulting in the regulation of mitochondrial function in cardiomyocytes by stabilizing mtDNA. […] Furthermore, mito-damage assay was applied to measure the changes in mitochondrial membrane potential (MMP). […]
Mitochondrial fission was analysed by staining mitochondria via MitoTracker® Deep Red FM (Cell Signalling) (Aung L H H, Li R B, Prabhakar B S, Maker A V, Li P F. Mitochondrial protein 18 (MTP18) plays a pro-apoptotic role in chemotherapy-induced gastric cancer cell apoptosis. Oncotarget. 2017; 8:56582-97). […] Mitochondria were imaged using Nikon Eclipse Ti microscope with 60× oils Objective (CFI Plan Apo Lambda 60× Oil) and images were analyzed with NIS Elements. To quantitatively analyse cells with mitochondria fission, those cells with disintegrated mitochondria were considered as fission. The total cell numbers were counted via Hochest 33342. […] More than 150 cells in 10-15 random fields were counted.

Series [2] deals with HL-1 cells. The series is described as follows: Annexin V & 7-AAD staining (apoptosis). The class given is cell-based, mouse. Particulars: HL-1 cells treated with doxorubicin 0.25 μM 48 h. On the procedure:
(§1) HL-1 cells were cultured in Claycomb medium together with 10% FBS, norepinephrine, L-Glutamine and pencillin/streptomycin as manufacturer's protocol. 3T3 and RAW264.7 cells were cultured in DMEM with 10% FBS and pencillin/streptomycin. Neonatal rat cardiomyocytes (NRCM) were isolated from one to three-day old rat babies by using the Neonatal Heart Dissociation Kit (Miltenyi). Human iPSC derived cardiomyocytes (hiPSC-cm) were differentiated at the lab of IMTTS. All the cells were treated with 0.25 μM Doxorubicin (Sigma-Aldrich) for 48 hours. circ-Insr siRNA (Eurofins), in vitro circular RNA and overexpression plasmid were transfected with Lipofectamine 2000 (Life Technologies) in OptiMEM medium. NRCM and hipsc-CM were transduced by AAV6 (MOI: 1*10^4) for 72 hours.
FlowCellect Annexin Red kit (Millipore) was used to stain apoptotic cells as per the manufacturer instruction. Briefly, cells were seeded in 12 well plate and next day treated with 0.25 μM Doxorubicin in normal medium with 10% FBS for forty-eight hours. Then cells were trypsinized and harvested and stained with Annexin-V for 15 minutes at 37° C. in 1× assay buffer. Annexin-V stained cells were centrifuged and washed with 1× assay buffer. Next cells were incubated with 7-AAD for 5 minutes and acquired on Guava (Millipore) flow cytometer. Data was analyzed with FLOWJO software.

The test system of series [3] is HL-1 cells. Briefly: WST-1 assay (cell viability). In kind it is cell-based, mouse. Particulars: HL-1 cells treated with doxorubicin 0.25 μM 48 h. On the procedure: as §1
WST-1 assay was performed using Cell Proliferation Reagent WST-1 (Roche) as per the manufacturer instruction. Briefly, HL-1 cells were seeded in 96 well plate and next day treated with 0.25 μM Doxorubicin in normal medium with 10% FBS for forty-eight hours. Next, 10 μL WST1 reagent was added and incubated for 1 hour followed by the absorbance measurement (450 nm) at HT Synergy (Biotek) plate reader.
In general terms: Tetrazolium assays rely on reduction of a dye to a coloured formazan, in cell work by metabolically active cells.

The test system of series [4] is cardiomyocytes. Briefly: Cardiomyocyte size on wheat germ agglutinin stained heart sections. The conditions noted are these: WGA stained heart sections, doxorubicin model; circINSR given as AAV9. The class given is in vivo, mouse. On the procedure:
(§2) In addition to apoptosis, doxorubicin is known to cause cardiomyocyte atrophy^12 (G). Thus, histopathology analyses were performed on transversal heart section.
Cryosections of heart were stained with Alexa Fluor 488 labelled wheat germ agglutinin (Invitrogen) and dapi. Images were taken with Nikon Eclipse Ti microscope and images were analyzed with NIS Elements. For each heart 5 to 10 images were randomly taken from different regions of the section and minimum two hundred cells were measured and average value was taken for each heart.

Series [5] has as its system apoptotic cardiomyocytes. Briefly: TUNEL and cardiac troponin T co-staining of heart sections. The class given is in vivo, mouse. The conditions noted are these: transversal heart sections, doxorubicin model; circINSR given as AAV9. On the procedure:
as §2
Cells were fixed with 4% paraformaldehyde for twenty minutes at room temperature and then permeabilized with ice-cold 0.1% Triton-X-100 in PBS for two minutes at room temperature. Next cells were incubated with enzyme labelling solution provided with In Situ cell death detection kit (Roche) for 1 hour at 37° C. For negative staining, enzyme was not added to the labelling solution. Cells were then washed and incubated with Dapi for 15 minutes. To specifically label neonatal rat cardiomyocytes and hipsc-CM, cells were co-stained with cardiac Troponin T (Thermofisher) after Tunel staining. Images were taken with Nikon Eclipse Ti microscope and images were analyzed with NIS Elements. For analysis in each case, ten different images were analyzed from different regions and average value was taken. Similarly, cryosections of heart were also processed for staining. Numerous images covering complete heart section was taken and Tunel positive nuclei were counted in each field. Average value for each heart was calculated.

For series [6], the system named is HL-1 cells. The series is described as follows: mtDNA copy number measurement. The class given is cell-based, mouse. Particulars: doxorubicin 0.25 μM 48 h, circ-Insr by overexpression plasmid. On the procedure: Based on the results of the foregoing examples, it was reasoned that circ-Insr could interact with SSBP1. To further confirm the interaction between circ-Insr and SSBP1, siRNA mediated circ-Insr knock-down was applied in HL-1 cells. Next, RNA pulldown was performed with circ-Insr and scramble biotinylated probes. RT-qPCR confirmed that decrease of circ-Insr appeared both in input and circ-Insr pulldown group (FIG. 23A). […] Therefore, we assumed that circ-Insr is a cofactor of SSBP1 resulting in the regulation of mitochondrial function in cardiomyocytes by stabilizing mtDNA. […] Furthermore, mito-damage assay was applied to measure the changes in mitochondrial membrane potential (MMP). […] Next, we co-transfected HL-1 cells with pcDNA-circ-Insr and SSBP1 siRNA and examined cell viability using the WST assay to explore whether SSBP1 participated in the circ-Insr overexpression-mediated therapy of doxorubicin-cardiotoxicity. RT-qPCR indicated SSBP1 siRNA could downregulate endogenous SSBP1 expression (FIG. 23G).
The ratio of mtDNA to genomic DNA was calculated by dividing copies of CYTB with copies of ACTB in each experiment (Li J, Chan M C, Yu Y, Bei Y H, Chen P, Zhou Q L, et al. miR-29b contributes to multiple types of muscle atrophy. Nature communications. 2017; 8). […] Fluorescence was measured during the last step of each cycle using the SYBR channel. […]

B1: circINSR: circRNA formed through backsplicing of the second exon of the insulin receptor gene transcript; overexpressed from plasmid or AAV (nucleic acid, listed as Homo sapiens)
chain: UGUGUCCCGGCAUGGAUAUCCGGAACAACCUCACUAGGUUGCAUGAGCUGGAGAAUUGCUCUGUCAUCGAAGGACACUUGCAGAUACUCUUGAUGUUCAAAACGAGGCCCGAAGAUUUCCGAGACCUCAGUUUCCCCAAACUCAUCAUGAUCACUGAUUACUUGCUGCUCUUCCGGGUCUAUGGGCUCGAGAGCCUGAAGGACCUGUUCCCCAACCUCACGGUCAUCCGGGGAUCACGACUGUUCUUUAACUACGCGCUGGUCAUCUUCGAGAUGGUUCACCUCAAGGAACUCGGCCUCUACAACCUGAUGAACAUCACCCGGGGUUCUGUCCGCAUCGAGAAGAACAAUGAGCUCUGUUACUUGGCCACUAUCGACUGGUCCCGUAUCCUGGAUUCCGUGGAGGAUAAUUACAUCGUGUUGAACAAAGAUGACAACGAGGAGUGUGGAGACAUCUGUCCGGGUACCGCGAAGGGCAAGACCAACUGCCCCGCCACCGUCAUCAACGGGCAGUUUGUCGAACGAUGUUGGACUCAUAGUCACUGCCAGAAAG
modifications: circular RNA; RNA sequence
notes: circRNA formed through backsplicing of the second exon of the insulin receptor gene transcript; overexpressed from plasmid or AAV
For B1, the “percentage of cells undergoing mitochondrial fission” value in series [1] is “significantly reduce”. Besides, in series [2], the “apoptotic cells (Annexin V)” value is “significantly lower levels of apoptosis”. The “cell viability (WST-1)” value is given as “enhanced cell viability” in series [3] and “enhance the cell survival” in series [3] (listed as circ-Insr). In addition, the cardiomyocyte size result in series [4] is reported as “indistinguishable from control mice”. Further, the “apoptotic cardiomyocytes (TUNEL / cTNT)” value in series [5] was “significantly blunted”. Also, the “mtDNA copy number / mtDNA content” value in series [6] is listed as “reverse the decrease”.
